Patent US20030022265

Tests used:
[1] = molecular target: T1, fusion protein comprising Golgi recognition signal and transmembrane domain of yeast Golgi protein Ste13, cleavage site of yeast α-factor, and yeast invertase (UniProt P33894)
T1 sequence: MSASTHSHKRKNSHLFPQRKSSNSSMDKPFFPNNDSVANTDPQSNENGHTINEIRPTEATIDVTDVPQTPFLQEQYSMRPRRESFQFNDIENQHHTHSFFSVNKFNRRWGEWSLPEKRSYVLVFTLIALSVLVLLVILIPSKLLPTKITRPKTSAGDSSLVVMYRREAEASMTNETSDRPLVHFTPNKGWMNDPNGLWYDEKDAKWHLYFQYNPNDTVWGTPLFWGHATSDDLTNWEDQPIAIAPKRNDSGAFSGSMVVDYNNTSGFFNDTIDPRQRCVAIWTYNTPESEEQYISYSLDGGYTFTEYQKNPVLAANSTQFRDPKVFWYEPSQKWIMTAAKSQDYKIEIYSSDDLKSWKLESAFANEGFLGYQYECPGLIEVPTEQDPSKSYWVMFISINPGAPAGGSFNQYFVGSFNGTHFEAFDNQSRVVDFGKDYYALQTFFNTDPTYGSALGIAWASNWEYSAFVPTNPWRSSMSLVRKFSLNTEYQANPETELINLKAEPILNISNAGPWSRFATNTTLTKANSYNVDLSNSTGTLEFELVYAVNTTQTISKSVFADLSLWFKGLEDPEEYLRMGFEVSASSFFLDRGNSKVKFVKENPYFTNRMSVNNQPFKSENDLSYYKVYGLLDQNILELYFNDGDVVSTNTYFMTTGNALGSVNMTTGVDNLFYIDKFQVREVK

[2] = test system: plasmid library of pADH-SteSubInv with random substitution of the 5th and 6th amino acids of cleavage region of α-factor
[3] = test system: product of plasmid pADH-SteInv

Substance: Kex2
- viability of cotransformed suc2, kex2 mutant yeast on sucrose-containing plate [1]: transformants of test group 1 were survived both on glucose-containing and sucrose-containing plates
- residues found at the randomised substrate positions in colonies grown on sucrose plates [2]: Various amino acids such as D, E, A, V, P, S, Q, K, R, and H were found at the 6th amino acid, while, solely R was found at the 5th amino acid
- viability of cotransformed suc2, kex2 mutant yeast on sucrose-containing plate [3]: transformants of test groups 2 to 4 were not able to grow on sucrose plates
